What was measured:
[1] = test system: recombinant human plasminogen (not fused to Fc, wild-type)
[2] = test system: recombinant plasminogen-linker-Fc fusion (human plasminogen, QA linker GQAGQAS, Fc)
Sequence of recombinant plasminogen-linker-Fc fusion (human plasminogen, QA linker GQAGQAS, Fc) (chain, as listed by the source): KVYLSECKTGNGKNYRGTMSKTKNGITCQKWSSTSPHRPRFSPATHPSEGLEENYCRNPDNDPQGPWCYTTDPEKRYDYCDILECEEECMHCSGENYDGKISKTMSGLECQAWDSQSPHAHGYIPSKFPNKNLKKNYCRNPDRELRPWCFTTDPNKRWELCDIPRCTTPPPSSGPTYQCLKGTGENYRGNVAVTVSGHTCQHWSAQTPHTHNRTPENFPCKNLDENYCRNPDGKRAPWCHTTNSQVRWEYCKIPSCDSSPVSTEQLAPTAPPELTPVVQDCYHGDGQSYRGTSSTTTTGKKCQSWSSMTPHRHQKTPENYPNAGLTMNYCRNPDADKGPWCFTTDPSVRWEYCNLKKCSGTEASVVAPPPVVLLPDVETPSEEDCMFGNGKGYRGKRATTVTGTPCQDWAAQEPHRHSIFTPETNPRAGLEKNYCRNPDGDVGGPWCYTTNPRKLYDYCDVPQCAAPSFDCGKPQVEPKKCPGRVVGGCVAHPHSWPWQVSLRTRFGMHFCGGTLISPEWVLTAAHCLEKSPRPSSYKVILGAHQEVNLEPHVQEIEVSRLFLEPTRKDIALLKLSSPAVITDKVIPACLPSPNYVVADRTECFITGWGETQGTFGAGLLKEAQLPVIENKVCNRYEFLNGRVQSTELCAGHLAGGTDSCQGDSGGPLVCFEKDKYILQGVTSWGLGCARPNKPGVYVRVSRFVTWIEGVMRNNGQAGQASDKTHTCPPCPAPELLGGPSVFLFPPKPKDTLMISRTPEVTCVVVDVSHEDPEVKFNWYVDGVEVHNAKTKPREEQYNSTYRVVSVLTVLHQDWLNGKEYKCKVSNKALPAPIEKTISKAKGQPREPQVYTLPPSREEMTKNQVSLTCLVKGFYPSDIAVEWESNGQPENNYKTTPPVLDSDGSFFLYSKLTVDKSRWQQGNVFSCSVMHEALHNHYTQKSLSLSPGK

Sequence of recombinant human plasminogen (not fused to Fc, wild-type) (chain, as listed by the source): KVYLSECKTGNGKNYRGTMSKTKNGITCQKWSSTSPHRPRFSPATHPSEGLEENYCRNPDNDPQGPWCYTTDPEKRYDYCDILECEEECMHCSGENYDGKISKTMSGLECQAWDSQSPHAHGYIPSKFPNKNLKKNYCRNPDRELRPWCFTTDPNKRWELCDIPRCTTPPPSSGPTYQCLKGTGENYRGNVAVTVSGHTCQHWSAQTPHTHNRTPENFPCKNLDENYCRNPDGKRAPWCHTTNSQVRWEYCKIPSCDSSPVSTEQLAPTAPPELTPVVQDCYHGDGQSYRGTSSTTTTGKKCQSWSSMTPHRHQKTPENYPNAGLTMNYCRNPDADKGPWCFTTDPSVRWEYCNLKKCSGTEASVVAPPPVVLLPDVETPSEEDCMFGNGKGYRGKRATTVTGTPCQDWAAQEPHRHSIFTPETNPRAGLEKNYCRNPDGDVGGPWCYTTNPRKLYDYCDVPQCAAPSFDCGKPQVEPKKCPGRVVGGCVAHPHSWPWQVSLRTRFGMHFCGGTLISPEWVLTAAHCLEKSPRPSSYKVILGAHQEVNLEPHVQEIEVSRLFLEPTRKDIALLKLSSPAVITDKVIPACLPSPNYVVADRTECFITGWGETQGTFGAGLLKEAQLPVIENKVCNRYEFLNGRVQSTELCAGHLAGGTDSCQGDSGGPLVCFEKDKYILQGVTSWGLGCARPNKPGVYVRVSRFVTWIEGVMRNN

urokinase-type plasminogen activator
Michelis-Menten analysis of activation (KM and Vmax), 10 mM EACA [1]: the kinetics of rPlg and rPlg-Fc activation are similar (as indicated by the KM and Vmax) | activation measured by the hydrolysis of plasmin fluorogenic substrate H-Ala-Phe-Lys-AMC [1]: In the presence of tPA or uPA, comparable hydrolytic activity for rPlg and rPlg-Fc is observed | Michelis-Menten analysis of activation (KM and Vmax), 10 mM EACA [2]: the kinetics of rPlg and rPlg-Fc activation are similar (as indicated by the KM and Vmax) | activation measured by the hydrolysis of plasmin fluorogenic substrate H-Ala-Phe-Lys-AMC [2]: In the presence of tPA or uPA, comparable hydrolytic activity for rPlg and rPlg-Fc is observed

Reference: patent US20240100134
